Experimental data taken from PMC9482650, “Quantitative fragmentomics allow affinity mapping of interactomes” (Nature Communications, 2022).

Legend:
Experiment in all cases: holdup assay
Design in all cases: key: below the threshold = too weak to quantify, mostly under pKd 3.1 to 4
APBA2_1, Q99767 = biological target: T1, APBA2_1, Q99767
T1 sequence (Q99767 563-664, limits assumed, looked up): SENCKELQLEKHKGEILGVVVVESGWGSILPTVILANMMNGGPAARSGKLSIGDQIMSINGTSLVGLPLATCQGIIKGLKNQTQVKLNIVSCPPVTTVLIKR

GOPC, Q9HD26 = biological target: GOPC, Q9HD26
GORASP1, Q9BQQ3 = biological target: GORASP1, Q9BQQ3
Sequence of GORASP1, Q9BQQ3 (Q9BQQ3 1-208): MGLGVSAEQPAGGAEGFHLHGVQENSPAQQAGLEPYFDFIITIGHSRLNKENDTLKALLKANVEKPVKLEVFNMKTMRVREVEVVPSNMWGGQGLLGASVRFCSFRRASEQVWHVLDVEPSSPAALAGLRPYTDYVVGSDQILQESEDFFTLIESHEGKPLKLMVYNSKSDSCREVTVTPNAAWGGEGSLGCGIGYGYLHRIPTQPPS

GRIP1_5, Q9Y3R0 = biological target: T2, GRIP1_5, Q9Y3R0
T2 sequence (Q9Y3R0 568-668, limits assumed, looked up): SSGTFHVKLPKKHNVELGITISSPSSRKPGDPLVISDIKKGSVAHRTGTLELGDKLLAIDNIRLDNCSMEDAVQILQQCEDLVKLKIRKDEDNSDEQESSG

IL16_3, Q14005 = biological target: IL16_3, Q14005
Sequence of IL16_3, Q14005 (Q14005 1107-1207): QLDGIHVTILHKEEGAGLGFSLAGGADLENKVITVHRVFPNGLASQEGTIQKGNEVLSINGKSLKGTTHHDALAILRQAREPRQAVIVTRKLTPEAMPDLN

LNX1_1, Q8TBB1 = biological target: LNX1_1, Q8TBB1
Sequence of LNX1_1, Q8TBB1 (Q8TBB1 261-371): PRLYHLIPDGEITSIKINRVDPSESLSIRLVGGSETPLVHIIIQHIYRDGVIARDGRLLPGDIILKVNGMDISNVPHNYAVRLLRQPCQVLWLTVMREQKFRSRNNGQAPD

LNX1_3, Q8TBB1 = biological target: LNX1_3, Q8TBB1
Sequence of LNX1_3, Q8TBB1 (Q8TBB1 500-596): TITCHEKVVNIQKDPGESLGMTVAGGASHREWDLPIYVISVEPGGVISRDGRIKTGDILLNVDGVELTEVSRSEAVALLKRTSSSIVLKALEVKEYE

LNX2_2, Q8N448 = biological target: T3, LNX2_2, Q8N448
T3 sequence (Q8N448 334-432, limits assumed, looked up): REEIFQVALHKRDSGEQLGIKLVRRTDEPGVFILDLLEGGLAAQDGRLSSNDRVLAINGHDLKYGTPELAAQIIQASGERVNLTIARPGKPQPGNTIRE

LNX2_3, Q8N448 = biological target: T4, LNX2_3, Q8N448
T4 sequence (Q8N448 463-564, limits assumed, looked up): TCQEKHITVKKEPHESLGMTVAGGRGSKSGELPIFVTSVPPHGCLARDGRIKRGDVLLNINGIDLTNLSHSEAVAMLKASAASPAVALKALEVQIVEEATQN

MAGI1_2, Q96QZ7 = biological target: MAGI1_2, Q96QZ7
Sequence of MAGI1_2, Q96QZ7 (Q96QZ7 456-580): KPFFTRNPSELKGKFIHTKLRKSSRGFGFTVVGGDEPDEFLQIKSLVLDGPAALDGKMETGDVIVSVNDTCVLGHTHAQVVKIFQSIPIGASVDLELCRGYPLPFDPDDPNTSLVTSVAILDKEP

MAGI2_4, Q86UL8 = biological target: MAGI2_4, Q86UL8
Sequence of MAGI2_4, Q86UL8 (Q86UL8 772-865): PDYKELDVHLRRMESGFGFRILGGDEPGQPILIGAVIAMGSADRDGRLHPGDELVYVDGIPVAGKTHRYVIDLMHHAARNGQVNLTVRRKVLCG

MAGI2_5, Q86UL8 = biological target: MAGI2_5, Q86UL8
Sequence of MAGI2_5, Q86UL8 (Q86UL8 915-1017): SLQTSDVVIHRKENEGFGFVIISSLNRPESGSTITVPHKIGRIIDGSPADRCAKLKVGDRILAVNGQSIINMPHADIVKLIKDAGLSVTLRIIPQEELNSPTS

MAGI2_6, Q86UL8 = biological target: MAGI2_6, Q86UL8
Sequence of MAGI2_6, Q86UL8 (Q86UL8 1141-1229): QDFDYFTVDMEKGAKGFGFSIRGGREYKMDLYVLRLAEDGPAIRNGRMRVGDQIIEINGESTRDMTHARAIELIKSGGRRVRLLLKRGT

MPDZ_5, O75970 = biological target: T5, MPDZ_5, O75970
T5 sequence (O75970 695-796, limits assumed, looked up): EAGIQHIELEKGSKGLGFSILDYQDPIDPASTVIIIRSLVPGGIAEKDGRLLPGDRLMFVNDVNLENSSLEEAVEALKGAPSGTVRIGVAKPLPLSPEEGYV

NHERF3_4, Q5T2W1 = biological target: T6, NHERF3_4, Q5T2W1
T6 sequence (Q5T2W1 373-468, limits assumed, looked up): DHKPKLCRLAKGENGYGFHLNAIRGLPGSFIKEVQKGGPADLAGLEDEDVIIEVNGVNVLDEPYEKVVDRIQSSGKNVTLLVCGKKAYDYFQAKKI

NHERF4_2, Q86UT5 = biological target: NHERF4_2, Q86UT5
Sequence of NHERF4_2, Q86UT5 (Q86UT5 220-308): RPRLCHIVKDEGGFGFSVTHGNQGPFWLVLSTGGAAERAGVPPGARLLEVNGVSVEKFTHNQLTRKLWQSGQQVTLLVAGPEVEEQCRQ

NOS1, P29475 = biological target: NOS1, P29475
Sequence of NOS1, P29475 (P29475 9-101): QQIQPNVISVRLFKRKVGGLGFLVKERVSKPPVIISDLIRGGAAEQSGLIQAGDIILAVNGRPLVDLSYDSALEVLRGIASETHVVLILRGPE

PDZD2_2, O15018 = biological target: T7, PDZD2_2, O15018
T7 sequence (O15018 329-429, limits assumed, looked up): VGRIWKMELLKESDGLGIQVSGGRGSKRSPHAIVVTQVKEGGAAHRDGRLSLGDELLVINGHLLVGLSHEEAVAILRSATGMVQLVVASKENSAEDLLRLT

PDZD7_3, Q9H5P4 = biological target: T8, PDZD7_3, Q9H5P4
T8 sequence (Q9H5P4 857-944, limits assumed, looked up): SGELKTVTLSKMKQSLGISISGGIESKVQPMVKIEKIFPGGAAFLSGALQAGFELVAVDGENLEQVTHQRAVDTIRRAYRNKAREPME

PDZRN3_1, Q9UPQ7 = biological target: T9, PDZRN3_1, Q9UPQ7
T9 sequence (Q9UPQ7 244-349, limits assumed, looked up): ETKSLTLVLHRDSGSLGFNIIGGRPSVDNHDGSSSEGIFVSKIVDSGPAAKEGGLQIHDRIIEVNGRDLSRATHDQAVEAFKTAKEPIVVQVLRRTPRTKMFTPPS

PICK1, Q9NRD5 = biological target: PICK1, Q9NRD5
Sequence of PICK1, Q9NRD5 (Q9NRD5 17-115): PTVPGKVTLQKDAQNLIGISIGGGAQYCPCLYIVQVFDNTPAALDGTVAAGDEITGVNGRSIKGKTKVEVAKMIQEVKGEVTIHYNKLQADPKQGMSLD

RADIL, Q96JH8 = biological target: T10, RADIL, Q96JH8
T10 sequence (Q96JH8 971-1071, limits assumed, looked up): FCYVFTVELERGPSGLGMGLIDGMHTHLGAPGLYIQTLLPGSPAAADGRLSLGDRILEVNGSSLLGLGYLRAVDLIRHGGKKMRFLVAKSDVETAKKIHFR

SCRIB_3, Q14160 = biological target: SCRIB_3, Q14160
Sequence of SCRIB_3, Q14160 (Q14160 999-1103): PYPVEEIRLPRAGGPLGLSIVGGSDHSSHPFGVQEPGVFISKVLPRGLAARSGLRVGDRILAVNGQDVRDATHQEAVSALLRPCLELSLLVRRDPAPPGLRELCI

SYNJ2BP, P57105 = biological target: T11, SYNJ2BP, P57105
T11 sequence (P57105 8-110, limits assumed, looked up): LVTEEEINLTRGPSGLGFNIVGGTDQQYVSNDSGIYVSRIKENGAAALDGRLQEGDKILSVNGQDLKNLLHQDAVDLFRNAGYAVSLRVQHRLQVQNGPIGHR

TJP2_1, Q9UDY2 = biological target: TJP2_1, Q9UDY2
Sequence of TJP2_1, Q9UDY2 (Q9UDY2 24-128): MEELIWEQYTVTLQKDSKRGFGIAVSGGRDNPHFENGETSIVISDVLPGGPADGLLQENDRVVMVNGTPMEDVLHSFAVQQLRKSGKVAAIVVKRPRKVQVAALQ

TJP3_3, O95049 = biological target: T12, TJP3_3, O95049
T12 sequence (O95049 375-456, limits assumed, looked up): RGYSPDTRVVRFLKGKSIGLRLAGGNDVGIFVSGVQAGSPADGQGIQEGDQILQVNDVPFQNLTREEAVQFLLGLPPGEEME

[1] = plain residues with an end cap or a label only (N-terminal biotin on a linker: ttds)
[2] = plain residues with an end cap or a label only (N-terminal biotin on a linker: ahx)

B1: ARHGEF26, Q96DR7 (peptide)
chain: GRLLGLETNV
B1 was tested, and the pKd (APBA2_1, Q99767; [1]) was “below the threshold”, the pKd (GOPC, Q9HD26; [1]) was “below the threshold” and the pKd (GORASP1, Q9BQQ3; [1]) was “below the threshold”. For the same binder, the pKd (GRIP1_5, Q9Y3R0; [1]) was “below the threshold”, the pKd (IL16_3, Q14005; [1]) was “below the threshold” and the pKd (LNX1_1, Q8TBB1; [1]) was 3.81. For the same binder, the pKd (LNX1_3, Q8TBB1; [1]) was “below the threshold”, the pKd (LNX2_2, Q8N448; [1]) was 4.13 and the pKd (LNX2_3, Q8N448; [1]) was “below the threshold”. For the same binder, the pKd (MAGI1_2, Q96QZ7; [1]) was 3.65, the pKd (MAGI2_4, Q86UL8; [1]) was 4.02 and the pKd (MAGI2_5, Q86UL8; [1]) was “below the threshold”. For the same binder, the pKd (MAGI2_6, Q86UL8; [1]) was 4.39, the pKd (MPDZ_5, O75970; [1]) was “below the threshold” and the pKd (NHERF3_4, Q5T2W1; [1]) was “below the threshold”. For the same binder, the pKd (NHERF4_2, Q86UT5; [1]) was “below the threshold”, the pKd (NOS1, P29475; [1]) was 3.88 and the pKd (PDZD2_2, O15018; [1]) was 4.12. The pKd (PDZD7_3, Q9H5P4; [1]) was 4.11, the pKd (PDZRN3_1, Q9UPQ7; [1]) was 3.59 and the pKd (PICK1, Q9NRD5; [1]) was “below the threshold”. For the same binder, the pKd (RADIL, Q96JH8; [1]) was “below the threshold”, the pKd (SCRIB_3, Q14160; [1]) was 4.67 and the pKd (SYNJ2BP, P57105; [1]) was 4.86. The pKd (TJP2_1, Q9UDY2; [1]) was “below the threshold” and the pKd (TJP3_3, O95049; [1]) was “below the threshold”.

B2: ARHGAP6, O43182 (peptide)
chain: NPDALPETLV
For B2, the pKd (APBA2_1, Q99767; [1]) was “below the threshold”, the pKd (GOPC, Q9HD26; [1]) was 4.14 and the pKd (GORASP1, Q9BQQ3; [1]) was “below the threshold”. For the same binder, the pKd (GRIP1_5, Q9Y3R0; [1]) was “below the threshold”, the pKd (IL16_3, Q14005; [1]) was “below the threshold” and the pKd (LNX1_1, Q8TBB1; [1]) was 3.83. The pKd (LNX1_3, Q8TBB1; [1]) was “below the threshold”, the pKd (LNX2_2, Q8N448; [1]) was 4.66 and the pKd (LNX2_3, Q8N448; [1]) was “below the threshold”. The pKd (MAGI1_2, Q96QZ7; [1]) was “below the threshold”, the pKd (MAGI2_4, Q86UL8; [1]) was 4.42 and the pKd (MAGI2_5, Q86UL8; [1]) was 4.45. For the same binder, the pKd (MAGI2_6, Q86UL8; [1]) was 4.31, the pKd (MPDZ_5, O75970; [1]) was “below the threshold” and the pKd (NHERF3_4, Q5T2W1; [1]) was “below the threshold”. The pKd (NHERF4_2, Q86UT5; [1]) was “below the threshold”, the pKd (NOS1, P29475; [1]) was 3.92 and the pKd (PDZD2_2, O15018; [1]) was 4.12. The pKd (PDZD7_3, Q9H5P4; [1]) was 5.61, the pKd (PDZRN3_1, Q9UPQ7; [1]) was 4.3 and the pKd (PICK1, Q9NRD5; [1]) was “below the threshold”. It also gave a pKd (RADIL, Q96JH8; [1]) of 4.08, a pKd (SCRIB_3, Q14160; [1]) of 3.99 and a pKd (SYNJ2BP, P57105; [1]) of 4.06. For the same binder, the pKd (TJP2_1, Q9UDY2; [1]) was “below the threshold” and the pKd (TJP3_3, O95049; [1]) was “below the threshold”.

B3: ARVCF, O00192 (peptide)
chain: AKPQPVDSWV
For B3, the pKd (APBA2_1, Q99767; [2]) was “below the threshold”, the pKd (GOPC, Q9HD26; [2]) was “below the threshold” and the pKd (GORASP1, Q9BQQ3; [2]) was 4. For the same binder, the pKd (GRIP1_5, Q9Y3R0; [2]) was “below the threshold”, the pKd (IL16_3, Q14005; [2]) was “below the threshold” and the pKd (LNX1_1, Q8TBB1; [2]) was “below the threshold”. The pKd (LNX1_3, Q8TBB1; [2]) was “below the threshold”, the pKd (LNX2_2, Q8N448; [2]) was 4.44 and the pKd (LNX2_3, Q8N448; [2]) was “below the threshold”. The pKd (MAGI1_2, Q96QZ7; [2]) was “below the threshold”, the pKd (MAGI2_4, Q86UL8; [2]) was 4.12 and the pKd (MAGI2_5, Q86UL8; [2]) was “below the threshold”. For the same binder, the pKd (MAGI2_6, Q86UL8; [2]) was 5.48, the pKd (MPDZ_5, O75970; [2]) was “below the threshold” and the pKd (NHERF3_4, Q5T2W1; [2]) was “below the threshold”. The pKd (NHERF4_2, Q86UT5; [2]) was “below the threshold”, the pKd (NOS1, P29475; [2]) was 3.85 and the pKd (PDZD2_2, O15018; [2]) was 5.95. For the same binder, the pKd (PDZD7_3, Q9H5P4; [2]) was 3.53, the pKd (PDZRN3_1, Q9UPQ7; [2]) was “below the threshold” and the pKd (PICK1, Q9NRD5; [2]) was “below the threshold”. The pKd (RADIL, Q96JH8; [2]) was 4.46, the pKd (SCRIB_3, Q14160; [2]) was 3.95 and the pKd (SYNJ2BP, P57105; [2]) was 5.04. For the same binder, the pKd (TJP2_1, Q9UDY2; [2]) was 4.77 and the pKd (TJP3_3, O95049; [2]) was 4.73.

B4: KCNJ12, Q14500 (peptide)
chain: QRPYRRESEI
With B4 the pKd (APBA2_1, Q99767; [1]) was “below the threshold”, the pKd (GOPC, Q9HD26; [1]) was “below the threshold” and the pKd (GORASP1, Q9BQQ3; [1]) was “below the threshold”. The pKd (GRIP1_5, Q9Y3R0; [1]) was “below the threshold”, the pKd (IL16_3, Q14005; [1]) was “below the threshold” and the pKd (LNX1_1, Q8TBB1; [1]) was “below the threshold”. For the same binder, the pKd (LNX1_3, Q8TBB1; [1]) was “below the threshold”, the pKd (LNX2_2, Q8N448; [1]) was “below the threshold” and the pKd (LNX2_3, Q8N448; [1]) was “below the threshold”. The pKd (MAGI1_2, Q96QZ7; [1]) was 4, the pKd (MAGI2_4, Q86UL8; [1]) was “below the threshold” and the pKd (MAGI2_5, Q86UL8; [1]) was “below the threshold”. The pKd (MAGI2_6, Q86UL8; [1]) was “below the threshold”, the pKd (MPDZ_5, O75970; [1]) was “below the threshold” and the pKd (NHERF3_4, Q5T2W1; [1]) was “below the threshold”. The pKd (NHERF4_2, Q86UT5; [1]) was “below the threshold”, the pKd (NOS1, P29475; [1]) was 3.53 and the pKd (PDZD2_2, O15018; [1]) was 4.26. The pKd (PDZD7_3, Q9H5P4; [1]) was 4.57, the pKd (PDZRN3_1, Q9UPQ7; [1]) was 4.68 and the pKd (PICK1, Q9NRD5; [1]) was “below the threshold”. For the same binder, the pKd (RADIL, Q96JH8; [1]) was “below the threshold”, the pKd (SCRIB_3, Q14160; [1]) was 4.76 and the pKd (SYNJ2BP, P57105; [1]) was 5.17. The pKd (TJP2_1, Q9UDY2; [1]) was “below the threshold” and the pKd (TJP3_3, O95049; [1]) was “below the threshold”.
